# Test results: the nanobody polyreactivity screen of Harvey et al. (2022)
# Experiment: yeast display, Sf9 membrane polyspecificity reagent, FACS + sequencing; frameworks hold sequencing errors
# In short: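 Nanobodies came from a synthetic yeast display library in Saccharomyces cerevisiae BJ5465, induced with galactose for 36–48 hours and stained for 1 hour at 4 °C with 10% biotinylated, detergent-solubilized Sf9 membrane reagent. Cells were enriched on streptavidin microbeads and then FACS-sorted, with low and high (top ~1%) gates set on anti-HA fluorescence for expression and streptavidin fluorescence for reagent binding. Each polyreactivity label reflects the gate a clone came from. Genes were amplified by colony PCR, sequenced by MiSeq 2 × 250 and filtered by CDR length.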
row,Sequence,polyreactivity (PSR sort gate)
1,QVQLVESGGGLVQAGGSLRLSCAASGLTFPFYVMGWYRQAPGKERELVAAISASGASTYYADSVKGRFTISRDNAKNTVYLQMNSLKPEDTAVYYCAALGYGFSYRYDYWGQGTQVTVSS,high polyreactivity
2,QVQLVESGGGLVQAGGSLRLSCAASGLTFPGYAMGWYRQAPVKERELVAAISYSSGSTYYADSVKGRFTISRDNAKNTVYLQMNILKQEDTEVYYCNRVYRFRGITELDYWGQGTQVTVSS,high polyreactivity
3,QVQLVESGGGLVQAGGSLRLSCAASGLTFPQYAMGWYIQAPGKERELVAAISKTGGSTYYADSVKGRFTISRDNAKNTVYLLMNSLKPEDTAVYYCAAGSSVTPYRYYYWGQGTQVTVSS,high polyreactivity
4,QVQLVESGGGLVQAGGSLRLSCAASGLTFPVYAMGWYRQAPGKERELVAAISKSGGNTYYADSVKGRFTISRDNAKNTVYLQMNSLKPEDTAVYYCAAGYLSGNYARYGYWGQGTQVTVSS,high polyreactivity
5,QVQLVESGGGLVQAGGSLRLSCAASGLTFPYYAMGWYRQAPGKERELVATISWSSISTYYADSVKGRFTISRDNAKNTVYLQMNSLKPEDTAVYYCNARYSLRRGYDYWGQGTQVTVSS,low polyreactivity
6,QVQLVESGGGLVQAGGSLRLSCAASGLTFPYYAMGWYRQAPGTERELVAVITTSTGTTYYADSVKGRFTMSRDNAKNTVYLQMNSLKPEDTAVYYCATDTGAYWFSLYDYWGQGTQVTVSS,low polyreactivity
7,QVQLVESGGGLVQAGGSLRLSCAASGLTFQNNAMGRSRQAPGKERELVAVITRIGGSTYYADSVKGRFTISRDNAKNTVYLQLNSLKPEDTAVYYCAVRRRYTPGYDYWGQGTQVTVSS,high polyreactivity
8,QVQLVESGGGLVQAGGSLRLSCAASGLTFQNNARGWYRQAPGKERELVAAISDGGSTYYADSVKGRFTISRDNAKNTVYLQMNSLKPEDTGVYYCNADYGGWDYLYTSDQDNEYGYWGQGTQVTVSS,low polyreactivity
9,QVQLVESGGGLVQAGGSLRLSCAASGLTFQSYAMGWYRQAPGKEREFAYYADSVKGRFTMSRDNAKNTVYLQMNSLKPEDTAVYYCNGADDEGDRPITQVGYDYWGQGTQVTVSS,low polyreactivity
10,QVQLVESGGGLVQAGGSLRLSCAASGLTFQYNAMGWYRQAPGKERELVAAISWSGGSTYYADSVKGRFTISRDNAKNTVYLQMNSLNPEDTAVYYCAAVYLHKSYARRMDYWGQGTQVTVSS,low polyreactivity
11,QVQLVESGGGLVQAGGSLRLSCAASGLTFRAYVMGWYRQAPGKERELVAAISVSGGSTYYADSVKGRFTISRDNAKNTVYLQMNSLKPEDTAVYYCAAAAKSWLFDYWGQGTQVTVSS,high polyreactivity
12,QVQLVESGGGLVQAGGSLRLSCAASGLTFRINAMGWYRQAPGKERELVAAITDSGTSTSYADSVKGRFTISRDNAKNTVYLQMKSLKPEDTAVYYCAADVRPGYYLYRSWGAYDYWGQGTQVTVSS,low polyreactivity
13,QVQLVESGGGLVQAGGSLRLSCAASGLTFRKNAMGWYRQAPGKERELVAAISFSGDRTYYADSVKGRFTISRDNAKNTVYLQMNSLKPEDTAVYYCAARSGVPGLEYDYWGQGTQVTVSS,low polyreactivity
14,QVQLVESGGGLVQAGGSLRLSCAASGLTFRKNAMGWYRQAPGKERELVAAISTGGRTYYADSVKGRFTISRDNAKNTVYLQMNSLKPEDTAVYYFNSVSVKSGLDYWGQGTQVTVSS,high polyreactivity
15,QVQLVESGGGLVQAGGSLRLSCAASGLTFRPYTMGWYRQAPGKERELVAAISARGGRTYYADSVKGRFTISRDNAKNTVYLQMNSLKPEDTAVYYCATLETTGVNYWGQGTQVTVSS,high polyreactivity
16,QVQLVESGGGLVQAGGSLRLSCAASGLTFRRNAMGWYRQAPGKERELVAAITARGTSTYYADSVKGRFSISRDNAKNTVYLQMNSLKPEDTAVYYCNVRWHRTRSEYDYWGQGTQVTVSS,high polyreactivity
17,QVQLVESGGGLVQAGGSLRLSCAASGLTFRRNAMGWYRQAPGKERELVAVNSRSGGSTYYADSVKGRFTISRDNAKNTVYLQMNCLKPEDTAVYYCNKRTRRTYDYWGQGTQVTVSS,high polyreactivity
18,QVQLVESGGGLVQAGGSLRLSCAASGLTFRRYDMGWYRQAPGKERELVAAITGGGSTYYADSVKGRFTISRDNAKNTVYLQMNSLKPEDTAVYYCAAGTWYWSYAYDYWGQGTQVTVSS,high polyreactivity
19,QVQLVESGGGLVQAGGSLRLSCAASGLTFRRYGMGWYRQAPGKERELVASISSRGGNTYYADSVKGRFTISRDNAKNTVYLQMNSLKPEDTAVYYCATGVSTRYEYWGQGTQVTVSS,high polyreactivity
20,QVQLVESGGGLVQAGGSLRLSCAASGLTFRVYDMGWYRQAPGKERELVAAITGGGRTYYADSVKGRFTISRDNAKNTVYLQMNSLKPEDTAVYYCAARTRVTKREYDYWGQGTQVTVSS,high polyreactivity
21,QVQLVESGGGLVQAGGSLRLSCAASGLTFRYNAMGWYRQAPGKERELVARISRNGGRTYYADSVKGRFTISRDNAKNTVYLQMNSLKPEDTAVYYCNVVYFVTTSPGYDYWGQGTQVTVSS,high polyreactivity

row,Sequence,polyreactivity (PSR sort gate)
1,QVQLVESGGGLVQAGGSLRLSCAASGLTFRYNTMGWYRQAPGKEREFVAAINYGGGSTYYADSVKGRFTISRDNAKNTVYLQMNSLKPEDTAVYYCARRTPRTPVTLYDYWGQGTQVTVSS,high polyreactivity
2,QVQLVESGGGLVQAGGSLRLSCAASGLTFRYYAMGGYRQAPGKERELDAAITSSGTSTYYADSVKGRFTISRDNAKNTVSLQMNSLKPEDTAVYYCAARYSGGTWSGYNYWGQGTQVTVSS,high polyreactivity
3,QVQLVESGGGLVQAGGSLRLSCAASGLTFRYYAMGWYRQAPGKERELVAAITRGARTNYADSVKGRFTISRDNAKNTVYLQMNSLKPEDTAVYYCNAGFTGLHRYGYWGQGTQVTVSS,high polyreactivity
4,QVQLVESGGGLVQAGGSLRLSCAASGLTFRYYAMGWYRQAPGKERELVATITGSGGSTYYADSVKGRFTISRDNAKNTVYFQMNSLNPEYTAVYYCAATVRVYDYWGQGTQVNVSS,high polyreactivity
5,QVQLVESGGGLVQAGGSLRLSCAASGLTFSGYAMGWYRQAPGKERELVAAISWRGGSTYYADSVKGRFTISRDNAKNTVYLQMNSLKPEDTAVYYCNRARVQDYPYYYWGQGTQVTVSS,high polyreactivity
6,QVQLVESGGGLVQAGGSLRLSCAASGLTFSGYSMGWYRQAPGKERELVAAITSGGNTYYADSVNGRFTISRDNAKNTVYLQMNSLKPEDTAVYYCNVADWRRWGYDYWGQGTQVTVSS,low polyreactivity
7,QVQLVESGGGLVQAGGSLRLSCAASGLTFSGYVMGWYRQAPGKERELVAAISSSGGRTYYADSVKGRFTISRDNAKNTVYLQMNSLKPEDTAVYYCAARNKYGGYPYGYDYWGQGTQVTVSS,high polyreactivity
8,QVQLVESGGGLVQAGGSLRLSCAASGLTFSIYAMGWYREAPGKERELVAAITGRGGRTYYADSVKGRFTISRDNAKNTVYLQMHSLKPEDTAVYYCAARYRGTDFDYWGQGTQVTVSS,high polyreactivity
9,QVQLVESGGGLVQAGGSLRLSCAASGLTFSIYAMGWYRQEPGKERELVARITWNSGSTYYADSVKGRFTISRDNAKNTVYLQMNSLKPEDTAVYYCNARFWGSGVGDLWEGVRYDYWGQGTQVTVSS,high polyreactivity
10,QVQLVESGGGLVQAGGSLRLSCAASGLTFSKNVMGWYRQAPGKERELVAAISGITSSTYYADSVKGRFTISRDNAKNTVYLQMNSLKPEDTAVYYCAADLSFSRPGRFGYWGQGTQVTVSS,high polyreactivity
11,QVQLVESGGGLVQAGGSLRLSCAASGLTFSKYVMGWYIQAPGKERELVAAITWSGGRTYYADSVKGRFTISRDNAKNTVYLQMNSLKPEDTAVYYCNRKLKGLGYEYDYWGQGTQVTVSS,high polyreactivity
12,QVQLVESGGGLVQAGGSLRLSCAASGLTFSPNAMGWYRQAPRKERELVAAISSSGGRTNYADSVKGRFTISRDNAKNTVYLQMNSLKPEDTAFYYCAARFYKTYPRMNYWGQGTQVTVSS,high polyreactivity
13,QVQLVESGGGLVQAGGSLRLSCAASGLTFSPYAMGWSRQAPGKERELVATITIGGSTKYADSVKGRFTISRDNAKNTVYLQMNSLKPEDSAVYYCAVRSGYVTRSYEYWGQGTQVTVSS,low polyreactivity
14,QVQLVESGGGLVQAGGSLRLSCAASGLTFSRYAMGWYRQAPGKERELVAAISSSGTRTYYADSVKGRFTISPDNPKNTVYLQMNSLKPEDTAVYYCNAYYAPRGYGYWGQGTQVTVSS,high polyreactivity
15,QVQLVESGGGLVQAGGSLRLSCAASGLTFSRYAMGWYRQAPGKERELVAAITWSGSSTYYADSVKGRFTISRDNAKNTVYLQMNSLKPEDTAVYYCAARYGYSRGPYYRSDYWGQGTQVNVSS,high polyreactivity
16,QVQLVESGGGLVQAGGSLRLSCAASGLTFSVNAMGWYRQAPGKERELVAAINYGGGSTYYADSVKGRFTISRDNAKNTVYLQMNSLKPEDTAVYYCAAVPYPRGKGYDYWGQGTQVTVSS,high polyreactivity
17,QVQLVESGGGLVQAGGSLRLSCAASGLTFSVYAMGWYRQAPGKERELVAAITSSGRTYYADSVKGRFTISRDNAKNTVYLQMNSLKPEDTAVYYCAAGYKSGPRRYYYWGQGTQVTVSS,high polyreactivity
18,QVQLVESGGGLVQAGGSLRLSCAASGLTFSVYTMGWYRQAPGKERELVAAITTSGGRTYYADSVKGRFTISRDNAKNTVYLQMNSLKPVDPAVYYCAAVRTGDTTGTMGYWGQGTQVTVSS,high polyreactivity
19,QVQLVESGGGLVQAGGSLRLSCAASGLTFSYYAMGWYRQAPGKERELVAAISWSGGITYYADSVKGRFKISRDNAKNTVYLQMNSLKPEDTAVYYCAADGYPTLFDYWGQGTQVTVAS,high polyreactivity
20,QVQLVESGGGLVQAGGSLRLSCAASGLTFSYYAMGWYRQAPGKERELVAGISSSGGTTYYADSVKGRFTISRDNAKNTVYLQMNSLKPEDTAVYYCATRRHYGSFWYDYWGQGTQVTVSS,high polyreactivity
